# Assay results: the RNAGym collection of RNA variant scans (doi:10.7554/elife.90254)
# B1: LINE1-full (parent)
# chain: UACGUAGGUGGUUUUCCCCUGAUAGUGCUAAGGGGGCCUGGAAGUUUGGACUGGGCAGAGCUCAACACAGCGUGGCAAAGUGGCUGUGGCUAGACUGCCUCUCUGGAUUCCUCGUCACUCAGCAGGGCAUCUCUGAGAGAAAUGCC
# Variants of: B1
# Assay: self-cleavage, relative activity (ratio to wild type); higher = more cleavage; in vitro, sequencing; the parent is a self-cleaving ribozyme
row,Variant,self-cleavage
1,U47C U108C,1.62
2,U47C U108G,1.41
3,G49U C76U,2.46
4,U47G U91C,0.1
5,U47C U62A,0.04
6,U47C U62C,0.12
7,U47A G125C,1.49
8,U47A G125A,1.11
9,A50G U132C,1.07
10,A50G U102C,1.51
11,G49A U87C,0.21
12,U46G U115C,1.69
13,A50C U104A,0.87
14,G49U U91C,0.46
15,U47G U134C,0
16,U47A A64G,0.2
17,U47C G60A,0.03
18,G48A A136G,1.62
19,U47C A50C,0.94
20,U47C A50G,1.14
21,A50G C68U,0.1
22,U47C U109C,1.61
23,U47C U109A,1.6
24,U47G A140G,0.71

row,Variant,self-cleavage
1,U47G A140U,0.9
2,U47A A77G,2.01
3,U47C U87A,0.12
4,U47G A124G,0.56
5,G49A A77U,0.86
6,U47A A138U,1.59
7,A50G A79C,1.02
8,A50G A79G,1
9,A50G U108C,1.2
10,G49C A121G,0.93
11,G48A A129G,1.54
12,A50C U115C,1.84
13,A50G A141G,1
14,A50G A141U,1.54
15,U47C C118A,0.46
16,G48A G49U,0.57
17,A50G G54A,0.16
18,A50G A92U,0.37
19,U47A U87C,0.19
20,G48A G122A,1.27
21,G48A C63U,0.36
22,A50G C56U,0.06
23,U47A U132C,1.41
24,U47C U81C,1.51

row,Variant,self-cleavage
1,U47A A69G,0.52
2,U47C A94C,0.12
3,U47C A94U,0.52
4,A50G U119A,0.96
5,U47C C98U,0.52
6,G48U A129G,1.23
7,A50C A65U,0.31
8,A50U A78G,0.83
9,U47G C146A,1.22
10,U47G C146U,1.69
11,U47C G93U,0.04
12,U47A A107G,0.95
13,U47C A129G,1.49
14,U47C G53A,1.78
15,A50C A57U,0
16,G49A U91G,0.04
17,U47G C113A,1.6
18,G49A U73C,2.51
19,A50G U87G,0.11
20,A50G U87C,0.14
21,A50G U87A,0.03
22,A50G A65C,0.1
23,A50G A65U,0.24
24,A50G A65G,0.14

row,Variant,self-cleavage
1,G49A A141G,1.64
2,A50C C120U,1.66
3,G49A U81A,1.95
4,G49A U102C,1.11
5,A50G U73G,0.34
6,A50G U73A,0.78
7,A50G U73C,1.31
8,U47A U104A,0.59
9,U47C C63U,0.37
10,A50G A78G,0.53
11,A50G A78U,1.2
12,U47A U130C,1.51
13,G49U G70A,0.04
14,G49U A124U,1.59
15,U47C A57U,0.29
16,A50U A67G,0.33
17,U47A A136G,1.52
18,U47A A50U,0.87
19,U47G G135A,0.79
20,A50G U81C,0.7
21,A50G U81A,1.3
22,G49U U132C,1.06
23,G49U U132A,1.31
24,G48U A64G,0.18

row,Variant,self-cleavage
1,A50G G58C,0.11
2,U47C G88A,0.07
3,U47A A65G,0.07
4,U46G U132A,1.4
5,U47A U96A,0.08
6,A50C A107G,1.53
7,U47A A94G,0.23
8,U47A A121C,1.49
9,U47C G127A,1.31
10,U47C G127C,1.23
11,A50U A79C,1.3
12,A50U A79G,1.27
13,U47C G75C,0.97
14,A50G A107U,1.24
15,G48A A141G,1.42
16,G49A A79G,0.97
17,U47A A117G,1.38
18,U47A A117C,1.32
19,U47A A117U,1.25
20,A50G C51U,0.62
21,G48A A94G,0.13
22,G48A A94U,0.18
23,U47A G88A,0.01
24,U47G A107G,1.24

row,Variant,self-cleavage
1,A50G G122A,0.83
2,G49U C71U,0.71
3,A50G A136G,1.04
4,A50G A136U,1.15
5,G48A A77G,1.73
6,A50C U81A,1.76
7,A50U A94U,0.27
8,A50C C116U,1.34
9,U47A G53A,1.23
10,G48A A117G,1.47
11,U47C A65C,0
12,U47C A65G,0.09
13,U47C A64G,0.31
14,U47C A64U,0.52
15,U47A C84A,0.14
16,U47A C84U,0.09
17,A50C U112C,1.36
18,U47C C111A,1.79
19,A50G U104C,1.08
20,U47C G114A,1.66
21,G48A U134A,0.83
22,U47A U73A,1.11
23,U47A U73C,1.45
24,U47A C118A,0.95

row,Variant,self-cleavage
1,A50G G127A,0.68
2,U47A C128U,1.39
3,G49U A92G,0.04
4,A50U A121G,1.09
5,A50G A69G,0.35
6,A50G A69U,0.1
7,G48A G125A,1.38
8,U47A U52A,1.84
9,U47C A107G,1.43
10,G49U U108C,1.5
11,G49A U119A,1.15
12,G49A U143C,1.09
13,G49A U143G,1.1
14,U47A A124C,1.18
15,G48A C131G,0.17
16,U46G G144U,0.95
17,U47G U85A,0.05
18,U47G U85C,0.33
19,U47C G72A,0.94
20,G48A G93U,0.03
21,G49A U96C,0.03
22,U47G A136U,1.53
23,G49A G122C,1.28
